Results: the supplement of paper PMC11246515
± gives the standard deviation of the averaged measurements.

Experiment: total protein half-life in vivo (active degradation + dilution); higher = more stable protein
[1] = E. coli NCM3722 delta-clpP delta-lon delta-hslV, growth: N-lim chemostat, doubling time 6 h
[2] = E. coli NCM3722 delta-clpP, growth: N-lim chemostat, doubling time 6 h
[3] = E. coli NCM3722 delta-smpB, growth: N-lim chemostat, doubling time 6 h
[4] = wild type E. coli NCM3722, growth: C-lim chemostat, doubling time 3 h
[5] = wild type E. coli NCM3722, growth: C-lim chemostat, doubling time 6 h
[6] = wild type E. coli NCM3722, growth: C-lim chemostat, doubling time 12 h
[7] = wild type E. coli NCM3722, growth: N-lim chemostat, doubling time 6 h
[8] = wild type E. coli NCM3722, growth: P-lim chemostat, doubling time 6 h
[9] = wild type E. coli NCM3722, growth: P-lim chemostat, doubling time 12 h
[10] = E. coli NCM3722 delta-hslV, growth: N-lim chemostat, doubling time 6 h
[11] = E. coli NCM3722 delta-lon, growth: N-lim chemostat, doubling time 6 h
[12] = wild type E. coli NCM3722, growth: N-lim chemostat, doubling time 12 h

Sequence | total protein half-life in vivo [1] | total protein half-life in vivo [2] | total protein half-life in vivo [3] | total protein half-life in vivo [4] | total protein half-life in vivo [5] | total protein half-life in vivo [6] | total protein half-life in vivo [7] | total protein half-life in vivo [8] | total protein half-life in vivo [9] | total protein half-life in vivo [10] | total protein half-life in vivo [11] | total protein half-life in vivo [12]
MESIQPWIEKFIKQAQQQRSQSTKDYPTSYRNLRVKLSFGYGNFTSIPWFAFLGEGQEASNGIYPVILYYKDFDELVLAYGISDTNEPHAQWQFSSDIPKTIAEYFQATSGVYPKKYGQSYYACSQKVSQGIDYTRFASMLDNIINDYKLIFNSGKSVIPPMSKTESYCLEDALNDLFIPETTIETILKRLTIKKNIILQGPPGVGKTFVARRLAYLLTGEKAPQRVNMVQFHQSYSYEDFIQGYRPNGVGFRRKDGIFYNFCQQAKEQPEKKYIFIIDEINRANLSKVFGEVMMLMEHDKRGENWSVPLTYSENDEERFYVPENVYIIGLMNTADRSLAVVDYALRRRFSFIDIEPGFDTPQFRNFLLNKKAEPSFVESLCQKMNELNQEISKEATILGKGFRIGHSYFCCGLEDGTSPDTQWLNEIVMTDIAPLLEEYFFDDPYKQQKWTNKLLGDS | 5.77 ± 0.24 h | 3.81 h | 4 ± 0.19 h | 3.13 ± 0.25 h | 6.02 ± 2.1 h | 8.15 ± 0.33 h | 4.41 ± 0.59 h | 5.12 ± 0.74 h | 6.46 ± 0.81 h | – | – | –
MESLNQFVNSLAPKLSHWRRDFHHYAESGWVEFRTATLVAEELHQLGYSLALGREVVNESSRMGLPDEFTLQREFERARQQGALAQWIAAFEGGFTGIVATLDTGRPGPVMAFRVDMDALDLSEEQDVSHRPYRDGFASCNAGMMHACGHDGHTAIGLGLAHTLKQFESGLHGVIKLIFQPAEEGTRGARAMVDAGVVDDVDYFTAVHIGTGVPAGTVVCGSDNFMATTKFDAHFTGTAAHAGAKPEDGHNALLAAAQATLALHAIAPHSEGASRVNVGVMQAGSGRNVVPASALLKVETRGASDVINQYVFDRAQQAIQGAATMYGVGVETRLMGAATASSPSPQWVAWLQSQAAQVAGVNQAIERVEAPAGSEDATLMMARVQQHQGQASYVVFGTQLAAGHHNEKFDFDEQVLAIAVETLARTALNFPWTRGI | 6.21 ± 1.1 h | 2.65 ± 0.05 h | 2.86 ± 0.093 h | 1.71 ± 0.65 h | 5.22 h | 5.67 ± 0.081 h | 2.9 ± 0.053 h | 1.87 h | 6.79 h | 3.12 ± 0.28 h | 3.18 ± 0.22 h | 4.45 ± 0.16 h
MESNNGEAKIQKVKNWSPVWIFPIVTALIGAWVLFYHYSHQGPEVTLITANAEGIEGGKTTIKSRSVDVGVVESATLADDLTHVEIKARLNSGMEKLLHKDTVFWVVKPQIGREGISGLGTLLSGVYIELQPGAKGSKMDKYDLLDSPPLAPPDAKGIRVILDSKKAGQLSPGDPVLFRGYRVGSVETSTFDTQKRNISYQLFINAPYDRLVTNNVRFWKDSGIAVDLTSAGMRVEMGSLTTLLSGGVSFDVPEGLDLGQPVAPKTAFVLYDDQKSIQDSLYTDHIDYLMFFKDSVRGLQPGAPVEFRGIRLGTVSKVPFFAPNMRQTFNDDYRIPVLIRIEPERLKMQLGENADVVEHLGELLKRGLRGSLKTGNLVTGALYVDLDFYPNTPAITGIREFNGYQIIPTVSGGLAQIQQRLMEALDKINKLPLNPMIEQATSTLSESQRTMKNLQTTLDSMNKILASQSMQQLPTDMQSTLRELNRSMQGFQPGSAAYNKMVADMQRLDQVLRELQPVLKTLNEKSNALVFEAKDKKDPEPKRAKQ | 6.4 ± 0.49 h | 7 ± 0.91 h | 5.75 ± 0.35 h | 3.341 ± 0.027 h | 7.13 ± 0.87 h | 12.8 ± 1.1 h | 5.99 ± 0.28 h | 6.06 ± 0.058 h | – | – | 6.43 ± 0.21 h | 12.9 ± 0.71 h
METFNSLFMVSPLLLGVLFFVAMLAGFIDSIAGGGGLLTIPALMAAGMSPANALATNKLQACGGSISATIYFIRRKVVSLSDQKLNIAMTFVGSMSGALLVQYVQADVLRQILPILVICIGLYFLLMPKLGEEDRQRRMYGLPFALIAGGCVGFYDGFFGPAAGSFYALAFVTLCGFNLAKATAHAKLLNATSNIGGLLLFILGGKVIWATGFVMLVGQFLGARMGSRLVLSKGQKLIRPMIVIVSAVMSAKLLYDSHGQEILHWLGMN [P0AD30] | 6.4 h | – | 6.13 h | – | 5.18 ± 0.11 h | – | 4.37 h | – | 10 ± 3.5 h | – | 6.29 ± 0.21 h | –
METKDLIVIGGGINGAGIAADAAGRGLSVLMLEAQDLACATSSASSKLIHGGLRYLEHYEFRLVSEALAEREVLLKMAPHIAFPMRFRLPHRPHLRPAWMIRIGLFMYDHLGKRTSLPGSTGLRFGANSVLKPEIKRGFEYSDCWVDDARLVLANAQMVVRKGGEVLTRTRATSARRENGLWIVEAEDIDTGKKYSWQARGLVNATGPWVKQFFDDGMHLPSPYGIRLIKGSHIVVPRVHTQKQAYILQNEDKRIVFVIPWMDEFSIIGTTDVEYKGDPKAVKIEESEINYLLNVYNTHFKKQLSRDDIVWTYSGVRPLCDDESDSPQAITRDYTLDIHDENGKAPLLSVFGGKLTTYRKLAEHALEKLTPYYQGIGPAWTKESVLPGGAIEGDRDDYAARLRRRYPFLTESLARHYARTYGSNSELLLGNAGTVSDLGEDFGHEFYEAELKYLVDHEWVRRADDALWRRTKQGMWLNADQQSRVSQWLVEYTQQRLSLAS | 6.86 ± 0.86 h | 5.96 ± 0.25 h | 2.4 ± 0.17 h | 2.1 ± 0.094 h | 3.51 ± 0.53 h | 4.92 ± 0.65 h | 2.83 ± 0.088 h | 2.92 ± 0.053 h | 5.02 ± 0.13 h | 2.71 ± 0.75 h | 2.76 ± 0.13 h | 4.179 ± 0.033 h
METKNLTIGERIRYRRKNLKHTQRSLAKALKISHVSVSQWERGDSEPTGKNLFALSKVLQCSPTWILFGDEDKQPTPPVEKPVALSPKELELLELFNALPESEQDTQLAEMRARVKNFNKLFEELLKARQRTNKR | 6.79 ± 1 h | 5.32 ± 0.38 h | 5.86 ± 0.56 h | 3.21 ± 0.043 h | 5.25 ± 0.77 h | 6.96 ± 1.7 h | 4.971 ± 0.028 h | 5.33 ± 1 h | 10.7 ± 0.66 h | 5.9 ± 0.15 h | 6.27 ± 0.067 h | 10.2 ± 2.7 h
METNIVEVENFVQQSEERRGSAFTQEVKRYLERYPNTQYVDVLLTDLNGCFRGKRIPVSSLKKLEKGCYFPASVFAMDILGNVVEEAGLGQEMGEPDRTCVPVLGSLTPSAADPEFIGQMLLTMVDEDGAPFDVEPRNVLNRLWQQLRQRGLFPVVAVELEFYLLDRQRDAEGYLQPPCAPGTDDRNTQSQVYSVDNLNHFADVLNDIDELAQLQLIPADGAVAEASPGQFEINLYHTDNVLEACDDALALKRLVRLMAEKHKMHATFMAKPYEEHAGSGMHIHISMQNNRGENVLSDAEGEDSPLLKKMLAGMIDLMPSSMALLAPNVNSYRRFQPGMYVPTQASWGHNNRTVALRIPCGDRHNHRVEYRVAGADANPYLVMAAIFAGILHGLDNELPLQEEVEGNGLEQEGLPFPIRQSDALGEFIENDHLRRYLGERFCHVYHACKNDELLQFERLITETEIEWMLKNA | 3.73 ± 1.2 h | 2.89 ± 0.19 h | 0.507 h | 0.748 h | 1.47 h | 0.976 h | – | – | – | 0.535 ± 0.066 h | – | –
